The source of these data is paper PMC8946000.

Test [1] concerns the target CT-MRAP2, C-terminal domain of MRAP2 fused to a poly-his tag (human) (UniProt Q96G30). Put plainly: SDS-PAGE; purified His-tagged CT-MRAP2 resolved by SDS-PAGE under denaturing conditions, anti-His blot.
Test [2] has the same target. Description: native gel or EMSA; blue native PAGE of 20 μg purified C-terminal MRAP2 domain, 3% to 16% Bis-Tris gel, 0 °C, anti-His blot; molecular weights only approximate.

One may read the stoichiometry N as the number of molecules, sites or subunits per partner or assembly. For the substance “CT-MRAP2, C-terminal domain of MRAP2 fused to a poly-his tag (from UniProt Q96G30 76-205) (domain or fragment)”, the stoichiometry N in test [1] and in test [2] was 2 each time.
